Assay results taken from publication PMC4944944 (2016).

Biological target: F-actin prepared from muscle actin (Oryctolagus cuniculus (Rabbit), UniProt P68135)
Test: F-actin co-sedimentation

B1: Flag::mCherry::CHDP-1 (protein)
chain: MSEEIKKIEEVAEQDKAPKVPTTEPPVDVPAPVTEEAPKVEEAVAEIAAPAAAEGETATAAAAAPEEKKKSGGVARRFTFNKRWGKHRDAEASTPKEPEAPKDPKEDVLGWIAQQIPQAVHKANYQVIDWVQKTAIPEEGERKTIPGKDQATTRNQFIGFFKDGDVLAKLANALEPGAVEVAAAEENADAAAQKEVQKKNIDAFGAWAQKTLGTEAAPVTNEDLLEKGKAGYTAVFQTLWQLGVQAKEKFDKEGFNVDTIVQLANSVVKSGLLTTILGFFRRNRQAAAAVEEPKDETAAAEGAGEAKEEGATGEVADTADEPVAVKQETSAPAAVAAN
binding result: no binding
